According to publication PMC7096399:

What was measured:
[1] = target: His6-tagged FGF2 (Fibroblast Growth Factor 2, 18 kDa isoform), wild type, P09038-2; assay: AlphaScreen; details: His-FGF2 and GST-α1-subCD3 variants cross-titrated from 500 to 8 nM in PBS, 0.1% (w per v) BSA, 0.05% (w per v) Tween 20; selected concentration pairs …; parent: est. 100; read off a plot
[2] = target: α1-subCD3 as used in cross-linking and NMR experiments (migrates at 27 kDa) (human) (UniProt P05023); assay: cross-linking; BMOE (1:1 to protein) or DSG (4:1) at 25 °C in HK buffer (25 mM Hepes pH 7.4, 150 mM KCl); single proteins 10 µM, mixtures 20 µM total at ratios 1:1, 1:2, 2:1; SDS-PAGE with Coomassie staining or western blot

| percent of parent [1] | stoichiometry N [2] | Substance |
| --- | --- | --- |
| 100% |  | GST-α1-subCD3, small sub-domain of loop 3 of the cytoplasmic domain of α1 (from UniProt P05023) K524E; E525R |
| 100% |  | GST-α1-subCD3, small sub-domain of loop 3 of the cytoplasmic domain of α1 (from UniProt P05023) K524M; E525Q |
| 60% |  | GST-α1-subCD3, small sub-domain of loop 3 of the cytoplasmic domain of α1, P05023 D560N |
| 110% |  | GST-α1-subCD3, small sub-domain of loop 3 of the cytoplasmic domain of α1, P05023 K524M; E525Q; E498Q |
|  | 1 | His6-tagged FGF2 (Fibroblast Growth Factor 2, 18 kDa isoform), wild type (from UniProt P09038-2 1-155) (natural protein) |
